Legend:
AncSZ = assay: phosphorylation enrichment, bacterial display (enrichment ratio); higher = better substrate or ligand; peptides without Tyr show the background
EPHB1 = EPHB1 (UniProt P54762); assay: as above
EPHB2 = EPHB2 (UniProt P29323); assay: as above
FGFR1 = FGFR1 (UniProt P11362); assay: as above
FGFR3 = FGFR3 (UniProt P22607); assay: as above
Fer (mouse) = assay: as above
Fes = Fes (UniProt P07332); assay: as above
Fyn = Fyn (UniProt P06241); assay: as above
Hck = Hck (UniProt P08631); assay: as above
Jak2 = Jak2 (UniProt O60674); assay: as above
MERTK = MERTK (UniProt Q12866); assay: as above
c-Abl (mouse) = assay: as above
c-Src = assay: as above
Grb2 SH2 = Grb2 SH2 (UniProt P62993); assay: SH2 binding enrichment of the phosphorylated peptide, bacterial display (enrichment ratio); higher = better substrate or ligand; peptides without Tyr show the background
SHP2-C SH2 = assay: as above
c-Src SH2 = assay: as above
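Throughout, for SH2 binding enrichment of the phosphorylated peptide, bacterial display: peptide library displayed on the E. coli surface as eCPX fusions, selected cells deep-sequenced, score is each peptide's frequency after selection divided by its frequency in the input.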
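Throughout, for phosphorylation enrichment, bacterial display: 11-residue human phosphosite peptides and single-mutation variants displayed on the E. coli surface, counted by deep sequencing, each peptide's frequency after selection divided by its frequency in the unselected input library; frequency after pTyr selection over input frequency; kinase dosed for 20-30% of maximal phosphorylation in three min.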

Sequence of EPHB2 (P29323 whole entry, looked up): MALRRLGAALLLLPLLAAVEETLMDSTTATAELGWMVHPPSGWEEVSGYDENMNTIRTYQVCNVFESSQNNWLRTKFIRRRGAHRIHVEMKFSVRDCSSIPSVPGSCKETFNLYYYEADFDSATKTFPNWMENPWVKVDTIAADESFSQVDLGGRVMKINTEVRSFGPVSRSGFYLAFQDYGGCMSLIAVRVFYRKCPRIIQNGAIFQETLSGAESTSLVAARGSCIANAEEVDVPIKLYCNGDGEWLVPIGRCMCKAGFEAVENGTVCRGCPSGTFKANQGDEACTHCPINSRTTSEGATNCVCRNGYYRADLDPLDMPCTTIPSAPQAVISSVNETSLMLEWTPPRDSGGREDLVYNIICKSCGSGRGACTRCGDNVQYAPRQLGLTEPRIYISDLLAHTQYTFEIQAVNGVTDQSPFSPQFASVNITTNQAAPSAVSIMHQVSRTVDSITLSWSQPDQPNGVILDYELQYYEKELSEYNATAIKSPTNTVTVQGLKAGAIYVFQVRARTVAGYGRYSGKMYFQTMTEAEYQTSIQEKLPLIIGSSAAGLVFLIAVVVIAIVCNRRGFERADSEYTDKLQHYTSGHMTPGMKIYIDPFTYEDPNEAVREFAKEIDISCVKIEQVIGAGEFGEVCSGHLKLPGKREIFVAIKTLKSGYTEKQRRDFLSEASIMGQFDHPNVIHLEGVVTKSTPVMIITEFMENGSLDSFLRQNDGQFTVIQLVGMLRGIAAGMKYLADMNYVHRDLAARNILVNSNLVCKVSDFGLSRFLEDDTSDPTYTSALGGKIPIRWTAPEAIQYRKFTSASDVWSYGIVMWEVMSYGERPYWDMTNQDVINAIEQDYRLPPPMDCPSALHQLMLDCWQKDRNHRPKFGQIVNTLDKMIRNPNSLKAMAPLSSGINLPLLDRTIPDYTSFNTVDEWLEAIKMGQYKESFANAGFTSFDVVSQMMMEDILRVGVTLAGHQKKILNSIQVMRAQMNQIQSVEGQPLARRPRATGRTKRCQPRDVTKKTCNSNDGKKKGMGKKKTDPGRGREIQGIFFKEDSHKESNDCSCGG
Sequence of Jak2 (O60674 whole entry, looked up): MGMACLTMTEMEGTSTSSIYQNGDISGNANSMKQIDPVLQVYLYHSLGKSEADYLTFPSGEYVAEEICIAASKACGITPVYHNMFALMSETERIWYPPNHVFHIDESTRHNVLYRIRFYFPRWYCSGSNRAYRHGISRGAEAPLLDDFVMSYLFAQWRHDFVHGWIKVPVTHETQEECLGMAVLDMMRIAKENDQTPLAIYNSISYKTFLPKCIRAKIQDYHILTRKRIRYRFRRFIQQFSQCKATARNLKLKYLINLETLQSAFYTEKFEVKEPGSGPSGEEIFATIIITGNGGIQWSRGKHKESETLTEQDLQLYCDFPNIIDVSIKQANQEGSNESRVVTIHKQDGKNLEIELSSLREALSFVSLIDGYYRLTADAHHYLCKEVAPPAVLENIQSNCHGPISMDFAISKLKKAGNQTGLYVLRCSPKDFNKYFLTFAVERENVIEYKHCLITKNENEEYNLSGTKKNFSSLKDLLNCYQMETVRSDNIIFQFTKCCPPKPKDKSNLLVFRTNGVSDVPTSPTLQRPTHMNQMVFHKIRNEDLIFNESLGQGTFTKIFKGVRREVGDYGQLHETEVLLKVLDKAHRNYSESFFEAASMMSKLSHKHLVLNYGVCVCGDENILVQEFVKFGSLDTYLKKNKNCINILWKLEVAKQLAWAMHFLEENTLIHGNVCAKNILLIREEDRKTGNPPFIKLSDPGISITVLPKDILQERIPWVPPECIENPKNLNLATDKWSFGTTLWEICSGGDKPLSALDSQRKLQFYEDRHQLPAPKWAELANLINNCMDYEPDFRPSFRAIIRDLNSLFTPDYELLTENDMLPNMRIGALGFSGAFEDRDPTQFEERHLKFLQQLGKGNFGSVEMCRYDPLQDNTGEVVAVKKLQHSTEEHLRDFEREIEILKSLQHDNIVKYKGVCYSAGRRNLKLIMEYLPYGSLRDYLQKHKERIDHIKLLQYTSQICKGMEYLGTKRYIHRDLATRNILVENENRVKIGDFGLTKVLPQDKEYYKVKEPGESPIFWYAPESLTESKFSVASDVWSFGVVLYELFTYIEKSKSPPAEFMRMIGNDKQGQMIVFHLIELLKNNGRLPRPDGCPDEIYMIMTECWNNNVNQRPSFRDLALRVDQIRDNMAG
Sequence of Fes (P07332 whole entry, looked up): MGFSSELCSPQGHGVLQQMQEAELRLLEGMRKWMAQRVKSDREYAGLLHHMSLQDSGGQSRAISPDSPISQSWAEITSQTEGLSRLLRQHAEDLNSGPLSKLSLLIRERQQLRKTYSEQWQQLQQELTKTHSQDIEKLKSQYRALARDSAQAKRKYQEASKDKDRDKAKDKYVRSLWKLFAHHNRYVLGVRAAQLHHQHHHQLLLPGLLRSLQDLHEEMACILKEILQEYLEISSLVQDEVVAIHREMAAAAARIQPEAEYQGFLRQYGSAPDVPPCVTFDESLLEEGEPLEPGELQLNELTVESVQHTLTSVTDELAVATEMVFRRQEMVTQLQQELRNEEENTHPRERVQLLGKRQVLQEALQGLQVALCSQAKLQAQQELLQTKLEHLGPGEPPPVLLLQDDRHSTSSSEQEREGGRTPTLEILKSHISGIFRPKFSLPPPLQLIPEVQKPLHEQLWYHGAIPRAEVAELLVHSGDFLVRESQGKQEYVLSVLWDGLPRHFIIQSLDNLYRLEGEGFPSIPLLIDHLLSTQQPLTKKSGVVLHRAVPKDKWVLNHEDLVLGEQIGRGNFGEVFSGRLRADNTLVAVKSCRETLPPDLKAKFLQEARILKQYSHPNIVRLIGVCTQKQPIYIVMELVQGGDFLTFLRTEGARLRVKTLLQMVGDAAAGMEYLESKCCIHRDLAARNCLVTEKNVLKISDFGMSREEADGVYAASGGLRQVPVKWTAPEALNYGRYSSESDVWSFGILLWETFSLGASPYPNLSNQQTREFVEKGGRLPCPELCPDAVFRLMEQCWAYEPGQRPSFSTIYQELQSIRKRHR
Sequence of MERTK (Q12866 whole entry, looked up): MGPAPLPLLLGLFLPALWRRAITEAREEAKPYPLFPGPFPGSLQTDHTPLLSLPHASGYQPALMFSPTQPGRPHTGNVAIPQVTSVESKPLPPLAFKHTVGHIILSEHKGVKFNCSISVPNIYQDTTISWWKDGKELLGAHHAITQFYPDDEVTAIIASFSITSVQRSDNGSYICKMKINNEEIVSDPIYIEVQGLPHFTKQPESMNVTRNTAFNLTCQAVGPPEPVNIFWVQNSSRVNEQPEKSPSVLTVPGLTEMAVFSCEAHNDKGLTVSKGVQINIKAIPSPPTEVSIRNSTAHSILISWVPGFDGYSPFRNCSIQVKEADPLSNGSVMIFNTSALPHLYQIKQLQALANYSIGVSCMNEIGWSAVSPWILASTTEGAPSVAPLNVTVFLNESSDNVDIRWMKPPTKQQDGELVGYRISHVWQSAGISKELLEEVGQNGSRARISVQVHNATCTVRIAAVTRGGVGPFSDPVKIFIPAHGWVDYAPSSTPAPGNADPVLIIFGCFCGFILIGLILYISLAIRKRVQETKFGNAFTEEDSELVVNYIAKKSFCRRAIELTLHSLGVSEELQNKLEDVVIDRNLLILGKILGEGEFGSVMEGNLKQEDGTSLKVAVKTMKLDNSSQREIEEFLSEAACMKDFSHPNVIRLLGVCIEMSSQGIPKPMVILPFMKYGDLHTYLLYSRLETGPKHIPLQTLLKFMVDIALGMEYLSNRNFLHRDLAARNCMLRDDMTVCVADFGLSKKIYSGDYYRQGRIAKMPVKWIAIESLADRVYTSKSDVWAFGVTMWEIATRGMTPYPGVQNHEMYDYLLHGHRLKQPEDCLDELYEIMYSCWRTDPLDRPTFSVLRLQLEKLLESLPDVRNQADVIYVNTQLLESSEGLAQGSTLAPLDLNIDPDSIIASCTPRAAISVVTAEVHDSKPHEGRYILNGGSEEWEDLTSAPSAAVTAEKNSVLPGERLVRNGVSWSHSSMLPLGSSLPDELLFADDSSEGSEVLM
Sequence of Fyn (P06241 whole entry, looked up): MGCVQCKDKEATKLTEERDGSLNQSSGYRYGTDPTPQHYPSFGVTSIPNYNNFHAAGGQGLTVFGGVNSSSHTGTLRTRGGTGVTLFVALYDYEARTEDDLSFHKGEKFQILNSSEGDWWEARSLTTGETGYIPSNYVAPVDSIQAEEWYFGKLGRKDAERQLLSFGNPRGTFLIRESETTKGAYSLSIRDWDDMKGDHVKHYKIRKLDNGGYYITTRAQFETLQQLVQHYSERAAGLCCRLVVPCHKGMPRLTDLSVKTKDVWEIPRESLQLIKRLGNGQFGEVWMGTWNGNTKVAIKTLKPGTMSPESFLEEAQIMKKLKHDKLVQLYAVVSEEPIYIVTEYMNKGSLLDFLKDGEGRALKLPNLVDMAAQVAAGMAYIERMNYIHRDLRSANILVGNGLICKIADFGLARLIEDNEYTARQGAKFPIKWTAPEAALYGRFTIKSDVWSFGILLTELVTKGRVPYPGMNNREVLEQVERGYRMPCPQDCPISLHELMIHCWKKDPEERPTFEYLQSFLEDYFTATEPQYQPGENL
Sequence of Hck (P08631 whole entry, looked up): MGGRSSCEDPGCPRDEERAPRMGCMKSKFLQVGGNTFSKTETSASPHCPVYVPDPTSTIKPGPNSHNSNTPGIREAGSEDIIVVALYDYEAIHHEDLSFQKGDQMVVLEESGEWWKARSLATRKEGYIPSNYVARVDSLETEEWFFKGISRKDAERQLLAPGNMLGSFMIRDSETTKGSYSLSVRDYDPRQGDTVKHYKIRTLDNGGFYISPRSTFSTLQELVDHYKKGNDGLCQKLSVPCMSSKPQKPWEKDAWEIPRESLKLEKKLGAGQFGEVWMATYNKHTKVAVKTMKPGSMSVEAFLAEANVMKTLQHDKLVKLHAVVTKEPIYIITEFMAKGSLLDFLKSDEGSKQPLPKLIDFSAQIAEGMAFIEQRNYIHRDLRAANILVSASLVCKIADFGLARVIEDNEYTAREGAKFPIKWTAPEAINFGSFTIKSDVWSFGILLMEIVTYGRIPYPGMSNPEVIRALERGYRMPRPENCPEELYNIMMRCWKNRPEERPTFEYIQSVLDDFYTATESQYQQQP

Row | SH2 binding enrichment (Grb2 SH2) | SH2 binding enrichment (SHP2-C SH2) | SH2 binding enrichment (c-Src SH2) | Sequence | phosphorylation enrichment (AncSZ) | phosphorylation enrichment (EPHB1) | phosphorylation enrichment (EPHB2) | phosphorylation enrichment (FGFR1) | phosphorylation enrichment (FGFR3) | phosphorylation enrichment (Fer (mouse)) | phosphorylation enrichment (Fes) | phosphorylation enrichment (Fyn) | phosphorylation enrichment (Hck) | phosphorylation enrichment (Jak2) | phosphorylation enrichment (MERTK) | phosphorylation enrichment (c-Abl (mouse)) | phosphorylation enrichment (c-Src)
1 | 0.617 | 0.598 | 0.328 | KNILCYIQGGS [HYDIN_Y4610] | 1.13 | 0.711 | 0.748 | 0.585 | 0.761 | 0.522 | 1.43 | 0.436 | 0.594 | 1.27 | 0.458 | 0.977 | 0.504
2 | 0.99 | 0.762 | 0.68 | KNITEYCRDLI [RECQL_Y492] | 0.877 | 0.544 | 0.606 | 0.476 | 0.691 | 0.502 | 1.05 | 0.477 | 0.471 | 0.791 | 0.397 | 0.66 | 0.42
3 | 0.755 | 0.977 | 0.624 | KPGVNYYFRVS | 1.15 | 0.534 | 0.739 | 0.623 | 0.7 | 0.483 | 1.37 | 0.368 | 0.423 | 1.16 | 0.392 | 0.732 | 0.385
4 | 0.78 | 0.609 | 0.402 | KPLMPYMRYSR [SMARCE1_Y73] | 0.787 | 0.353 | 0.449 | 0.449 | 0.431 | 0.384 | 0.761 | 0.432 | 0.435 | 0.626 | 0.467 | 0.635 | 0.52
5 | 0.726 | 0.497 | 0.403 | KPPFSYNALIM [FOXG1_Y186] | 0.641 | 0.424 | 0.488 | 0.455 | 0.628 | 0.461 | 0.724 | 0.438 | 0.472 | 0.632 | 0.525 | 0.57 | 0.512
6 | 1.09 | 0.985 | 0.836 | KPSLKYVTYGN [GALNTL5_Y404_G401S] | 0.577 | 0.334 | 0.349 | 0.4 | 0.516 | 0.417 | 0.65 | 0.379 | 0.462 | 0.443 | 0.348 | 0.408 | 0.387
7 | 1.14 | 0.673 | 0.585 | KQQEIYQELTQ [CD209_Y239] | 1.35 | 5.8 | 3.03 | 3.1 | 2.3 | 3.56 | 1.07 | 6.33 | 6.43 | 0.917 | 4.81 | 1.77 | 5.59
8 | 1.02 | 0.851 | 0.553 | KRAIGYFSATS [FAM120A_Y327_YF] | 0.543 | 0.345 | 0.426 | 0.381 | 0.467 | 0.327 | 0.612 | 0.382 | 0.492 | 0.612 | 0.362 | 0.362 | 0.364
9 | 0.709 | 0.837 | 1.4 | KSLSQYLEMDK [CAGE1_Y438_V435L] | 0.793 | 0.382 | 0.483 | 0.545 | 0.487 | 0.348 | 0.836 | 0.445 | 0.415 | 0.797 | 0.446 | 0.56 | 0.4
10 | 0.757 | 0.479 | 0.475 | KSNSDYVDVLP [SH2D1B_Y127_N122K] | 1.11 | 3.1 | 1.45 | 2.42 | 1.68 | 0.583 | 0.887 | 0.419 | 0.477 | 0.705 | 0.43 | 0.531 | 0.449
11 | 0.858 | 0.665 | 0.916 | KTGDYYDLYGG [PTPN11_Y63_N58K] | 1.86 | 9.65 | 7.72 | 16.8 | 13.8 | 0.829 | 1.09 | 4.48 | 5.07 | 2.26 | 3.04 | 0.813 | 3.86
12 | 1.5 | 1.24 | 1.46 | KTTILHKLKLG [ARF1_Y35_Y35H] | 0.584 | 0.4 | 0.509 | 0.439 | 0.518 | 0.435 | 0.739 | 0.333 | 0.39 | 0.548 | 0.35 | 0.591 | 0.326
13 | 0.649 | 0.56 | 0.42 | KTVQDYLKKFF [MMP8_Y36_E38K_YF] | 1.07 | 0.473 | 0.371 | 0.523 | 0.545 | 0.563 | 1.05 | 0.575 | 0.494 | 0.795 | 0.494 | 0.66 | 0.488
14 | 0.801 | 0.776 | 0.728 | KVKEQYQDVPM [PKP2_Y659] | 0.667 | 0.455 | 0.431 | 0.509 | 0.48 | 0.36 | 0.717 | 0.446 | 0.48 | 0.632 | 0.401 | 0.603 | 0.395
15 | 4.36 | 0.752 | 1.07 | LAARYYNWVCF [FLT4_Y1231_S1235C] | 1.37 | 0.899 | 0.615 | 1.96 | 1.94 | 1.39 | 1.51 | 0.777 | 0.588 | 1.11 | 1.04 | 0.977 | 0.512
16 | 0.993 | 1.04 | 1.02 | LASLIYNFILF [AQP6_Y231_V234I] | 2.67 | 2.51 | 1.28 | 4.45 | 4.49 | 19 | 3.72 | 13.3 | 11.5 | 2.98 | 14.7 | 5.49 | 12.7
17 | 2.06 | 1.18 | 0.765 | LDYNEYFRYLN [HPRT1_Y198_D201Y] | 1.79 | 0.858 | 1.39 | 3.33 | 2.1 | 0.635 | 1.23 | 1.45 | 1.41 | 7.21 | 0.573 | 1.81 | 2.04
18 | 0.951 | 1.04 | 0.591 | LEITWYPFDME [RIPOR2_Y316_V320M] | 1.85 | 1.21 | 0.792 | 0.698 | 1.48 | 0.751 | 2.31 | 0.594 | 0.66 | 2.05 | 0.608 | 1.32 | 0.554
19 | 0.979 | 0.789 | 3.29 | LEPHIYAVADV [MYO9A_Y216] | 0.926 | 0.822 | 1.2 | 0.469 | 0.616 | 1.64 | 1.02 | 1.74 | 1.6 | 0.741 | 1.28 | 14.1 | 2.11
20 | 0.755 | 0.576 | 0.504 | LEQDEYALRSH [HADHB_Y244] | 1.98 | 1.01 | 1.69 | 0.891 | 1.08 | 0.669 | 1.75 | 0.793 | 1.08 | 2.54 | 0.724 | 1.9 | 0.96

The remaining lines, values behind:

Row | Sequence | SH2 binding enrichment (Grb2 SH2) | SH2 binding enrichment (SHP2-C SH2) | SH2 binding enrichment (c-Src SH2) | phosphorylation enrichment (AncSZ) | phosphorylation enrichment (EPHB1) | phosphorylation enrichment (EPHB2) | phosphorylation enrichment (FGFR1) | phosphorylation enrichment (FGFR3) | phosphorylation enrichment (Fer (mouse)) | phosphorylation enrichment (Fes) | phosphorylation enrichment (Fyn) | phosphorylation enrichment (Hck) | phosphorylation enrichment (Jak2) | phosphorylation enrichment (MERTK) | phosphorylation enrichment (c-Abl (mouse)) | phosphorylation enrichment (c-Src)
21 | KNKELYSDPFD [PDE10A_Y300_L303P] | 0.623 | 0.805 | 0.672 | 0.877 | 0.878 | 1.37 | 0.706 | 0.935 | 0.983 | 0.886 | 0.443 | 0.824 | 0.763 | 0.786 | 0.592 | 0.629
22 | KPMDTYFDSTR [DYNC2H1_Y2230_YF] | 0.86 | 0.696 | 0.472 | 0.79 | 0.666 | 0.517 | 0.778 | 0.651 | 0.526 | 0.804 | 0.452 | 0.484 | 0.758 | 0.489 | 0.615 | 0.512
23 | KRLKDYLMVLQ [USP25_Y425_T427M] | 1.61 | 1.36 | 1.1 | 0.661 | 0.503 | 0.545 | 1.5 | 0.93 | 0.507 | 0.791 | 0.456 | 0.515 | 0.595 | 0.428 | 0.5 | 0.444
24 | KSIDEYLKLVG [RASAL2_Y381_E379D] | 0.992 | 0.797 | 0.556 | 0.843 | 0.378 | 0.596 | 0.465 | 0.445 | 0.374 | 0.73 | 0.406 | 0.489 | 0.761 | 0.34 | 0.449 | 0.37
25 | KSIQLYDTPFE [SHB_Y297_G293S_YF] | 0.766 | 0.802 | 2.03 | 1.18 | 12.7 | 18 | 0.518 | 0.683 | 3.47 | 1 | 1.01 | 2.17 | 0.9 | 6.02 | 1.29 | 0.784
26 | KSRQIYDAFIM [GRK3_Y109_R104K_YF] | 0.703 | 0.947 | 0.477 | 0.764 | 4.7 | 6.65 | 0.576 | 0.6 | 14.4 | 0.941 | 13 | 10.4 | 0.799 | 11.7 | 16.5 | 9.72
27 | KVALPYKPFFF [POLE_Y100_YF] | 1.3 | 1.28 | 1.12 | 0.743 | 0.42 | 0.715 | 0.375 | 0.537 | 0.455 | 0.855 | 0.44 | 0.557 | 0.674 | 0.41 | 0.656 | 0.547
28 | KYRREYILSLE [GPC3_Y299_W296R] | 0.774 | 0.606 | 0.374 | 0.754 | 0.364 | 0.465 | 0.427 | 0.491 | 0.534 | 0.698 | 0.468 | 0.49 | 0.628 | 0.576 | 0.511 | 0.613
29 | LARDIYKNDYY [ROS1_Y2110] | 1.02 | 0.722 | 0.881 | 1.1 | 0.953 | 0.782 | 3.15 | 2.19 | 0.369 | 0.828 | 0.854 | 0.712 | 0.752 | 0.426 | 0.462 | 1.42
30 | LASSEYPVQRR [GALK1_Y236_R239Q] | 1.16 | 0.794 | 0.256 | 0.732 | 0.381 | 0.308 | 0.58 | 1.17 | 0.981 | 1.32 | 1.07 | 0.761 | 1.06 | 0.554 | 1.03 | 0.707
31 | LDAGEYCVPRG [BEX1_Y43] | 0.844 | 0.715 | 0.453 | 8.78 | 3.38 | 3.87 | 1.32 | 1.73 | 1.47 | 2.01 | 1.26 | 1.57 | 1.05 | 0.866 | 3.62 | 0.816
32 | LEISPYMLSGP [LRRK2_Y1718_R1723P] | 0.904 | 0.465 | 0.517 | 1.53 | 0.753 | 0.633 | 0.921 | 0.983 | 2.63 | 1.16 | 3.67 | 1.1 | 1.35 | 1.97 | 0.866 | 3.58
33 | LEVETYRRLLD [KRT12_Y429_I426V] | 0.843 | 0.64 | 0.467 | 0.676 | 0.491 | 0.407 | 0.396 | 0.625 | 0.439 | 0.797 | 0.421 | 0.511 | 0.749 | 0.344 | 0.551 | 0.349
